Measured values published in paper PMC6108940 (Cell, 2018).

Tests used:
[1] = target: yeast COMPASS catalytic module (Set1-Swd1-Swd3-Bre2-Sdc1) (Kluyveromyces lactis, UniProt Q6CIT4); assay: H3K4 methylation of nucleosomes, western blot; format: biochemical; settings: 0.2 mM SAM, 1 uM enzyme, 0.5 uM nucleosomes, pH 7.5, 30 C, 30 min
[2] = target: K. lactis Bre2 (crystallised construct) (K. lactis); assay: crystal structure
[3] = target: K. lactis Sdc1 (crystallised construct) (K. lactis); assay: crystal structure

| Compound | H3K4 methylation of nucleosomes, western blot [1] | stoichiometry N [2] | stoichiometry N [3] |
| --- | --- | --- | --- |
| C[S+](CC[C@H](N)C(=O)O)C[C@H]1O[C@@H](n2cnc3c(N)ncnc32)[C@H](O)[C@@H]1O (stereo partly drawn) [SAM] | alanine mutation of Trp197 drastically compromised the catalytic activity of Set1 | – | – |
| K. lactis Sdc1 (crystallised construct) (natural protein) | – | 2 | 2 |
